According to publication PMC4041446, “Eukaryotic and archaeal TBP and TFB/TF(II)B follow different promoter DNA bending pathways”:

Assays:
[1] = molecular target: T1, MjTBP;MjTFB (Methanocaldococcus jannaschii;Methanocaldococcus jannaschii) (UniProt Q57930+Q58192+Q58192); assay: smFRET; conditions: MjTBP + MjTFB; smFRET: N70 buffer (Mj) or N65 buffer (Sa), compositions in Table 1 not in the material; Sa EMSA: 10 mM MOPS pH 6.5, 180 mM NaCl, 20 mM KOAc, 11 mM MgCl2, 10% …
T1 sequence 1: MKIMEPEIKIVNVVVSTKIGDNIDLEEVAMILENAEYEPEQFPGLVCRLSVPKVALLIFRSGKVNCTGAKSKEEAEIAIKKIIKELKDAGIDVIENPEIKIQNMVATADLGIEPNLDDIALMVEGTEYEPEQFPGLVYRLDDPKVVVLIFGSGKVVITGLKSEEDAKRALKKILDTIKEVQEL
T1 sequence 2: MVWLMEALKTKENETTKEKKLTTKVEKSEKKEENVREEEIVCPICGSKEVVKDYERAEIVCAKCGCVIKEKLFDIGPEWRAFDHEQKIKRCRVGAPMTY
T1 sequence 3: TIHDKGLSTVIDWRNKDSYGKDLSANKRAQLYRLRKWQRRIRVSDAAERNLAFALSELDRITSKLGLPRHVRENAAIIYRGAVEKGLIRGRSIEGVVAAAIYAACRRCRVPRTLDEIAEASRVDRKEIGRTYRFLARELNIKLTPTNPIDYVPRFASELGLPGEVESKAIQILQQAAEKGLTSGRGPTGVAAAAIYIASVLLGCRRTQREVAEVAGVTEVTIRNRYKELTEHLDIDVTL

[2] = molecular target: SaTBP;SaTFB (TFB1) (Sulfolobus acidocaldarius;Sulfolobus acidocaldarius) (UniProt Q9UWN7); assay: smFRET; conditions: smFRET: N70 buffer (Mj) or N65 buffer (Sa), compositions in Table 1 not in the material, Sa EMSA: 10 mM MOPS pH 6.5, 180 mM NaCl, 20 mM KOAc, 11 mM MgCl2, 10% …
[3] = molecular target: SaTBP;SaTFB (TFB1) (Sulfolobus acidocaldarius;Sulfolobus acidocaldarius) (UniProt Q9UWN7); assay: smFRET titration (confocal); conditions: smFRET: N70 buffer (Mj) or N65 buffer (Sa), compositions in Table 1 not in the material, Sa EMSA: 10 mM MOPS pH 6.5, 180 mM NaCl, 20 mM KOAc, 11 mM MgCl2, 10% …
MjTBP = molecular target: T2, MjTBP (Methanocaldococcus jannaschii, UniProt Q57930 1-183); assay: smFRET titration (confocal); smFRET: N70 buffer (Mj) or N65 buffer (Sa), compositions in Table 1 not in the material; Sa EMSA: 10 mM MOPS pH 6.5, 180 mM NaCl, 20 mM KOAc, 11 mM MgCl2, 10% glycerol, 5 mM DTT, 1 ug BSA, 100 ug/ml heparin, 65 C 5 min; conditions: protein: recombinant; label: Cy3B or ATTO532 donor, ATTO647n acceptor
T2 sequence: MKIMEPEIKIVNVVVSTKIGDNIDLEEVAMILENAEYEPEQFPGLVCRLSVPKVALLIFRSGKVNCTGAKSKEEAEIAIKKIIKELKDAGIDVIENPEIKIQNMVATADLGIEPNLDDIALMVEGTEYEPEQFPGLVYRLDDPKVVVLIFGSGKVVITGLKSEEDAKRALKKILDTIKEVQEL

ScTBP = molecular target: T3, ScTBP (Saccharomyces cerevisiae, UniProt P13393 1-240); assay: as above; conditions: protein: recombinant; label: donor and ATTO647n acceptor
T3 sequence: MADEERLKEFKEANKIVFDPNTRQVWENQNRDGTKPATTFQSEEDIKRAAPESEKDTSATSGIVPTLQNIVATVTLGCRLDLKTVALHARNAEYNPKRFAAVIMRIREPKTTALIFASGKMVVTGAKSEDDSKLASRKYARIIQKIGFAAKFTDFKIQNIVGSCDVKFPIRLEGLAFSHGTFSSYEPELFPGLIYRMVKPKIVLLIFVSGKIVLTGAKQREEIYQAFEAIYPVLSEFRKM

ScTBP;ScTF(II)B = molecular target: T4, ScTBP;ScTF(II)B (Saccharomyces cerevisiae;Saccharomyces …, UniProt P13393;P29055 1-240;1-345, |); assay: smFRET; TF(II)B stabilizes fully bent state; smFRET: N70 buffer (Mj) or N65 buffer (Sa), compositions in Table 1 not in the material; Sa EMSA: 10 mM MOPS pH 6.5, 180 mM NaCl, 20 mM KOAc, 11 mM MgCl2, 10% glycerol, 5 mM DTT, 1 ug BSA, 100 ug/ml heparin, 65 C 5 min; conditions: protein: recombinant;recombinant; tags: ;; copies: 1;1; label: donor and ATTO647n acceptor
T4 sequence 1: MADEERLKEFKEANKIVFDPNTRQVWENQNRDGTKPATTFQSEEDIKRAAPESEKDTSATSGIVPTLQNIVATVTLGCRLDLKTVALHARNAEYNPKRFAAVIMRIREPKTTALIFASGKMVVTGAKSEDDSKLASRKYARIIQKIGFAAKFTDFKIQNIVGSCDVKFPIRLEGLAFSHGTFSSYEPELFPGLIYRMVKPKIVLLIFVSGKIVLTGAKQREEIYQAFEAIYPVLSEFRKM
T4 sequence 2: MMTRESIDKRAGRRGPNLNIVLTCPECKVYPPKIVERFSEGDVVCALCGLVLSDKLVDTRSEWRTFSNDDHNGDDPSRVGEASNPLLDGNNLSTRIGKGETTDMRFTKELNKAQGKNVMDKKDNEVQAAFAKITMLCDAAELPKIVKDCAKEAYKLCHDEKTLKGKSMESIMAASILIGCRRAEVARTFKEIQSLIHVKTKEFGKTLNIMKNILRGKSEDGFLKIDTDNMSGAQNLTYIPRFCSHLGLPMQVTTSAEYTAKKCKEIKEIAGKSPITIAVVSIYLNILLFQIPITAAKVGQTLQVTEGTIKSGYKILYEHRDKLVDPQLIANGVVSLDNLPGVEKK

SaTBP;SaTFB (TFB1) (Sulfolobus acidocaldarius;Sulfolobus acidocaldarius), sequence (Q9UWN7 whole entry, looked up): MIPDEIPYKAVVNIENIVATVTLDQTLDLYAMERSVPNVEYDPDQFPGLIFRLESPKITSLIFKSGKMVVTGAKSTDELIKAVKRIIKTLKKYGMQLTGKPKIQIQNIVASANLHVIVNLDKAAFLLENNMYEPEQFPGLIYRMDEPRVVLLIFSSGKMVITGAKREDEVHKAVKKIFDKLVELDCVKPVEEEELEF

DNASSV-BRE
binding signal (% high FRET population) [1]: 62
binding signal (% high FRET population) ([2]; SaTBP + SaTFB, main text says no second population): 29

CGGACCGAAAGCGCGACCATCGCCGGAGATTGGAGTAAAGTTTAAATACTG (double strand) [DNASSV (SSV T6 promoter)]
binding signal (% high FRET population) ([2]; 6 uM SaTBP, 5 uM SaTFB): 92
Kd ([3]; SaTBP titrated, SaTFB 3 uM (Fig S7) or 2 uM): 930 nM
Kd ([3]; SaTFB titrated, 14 uM SaTBP): 363 nM

B1: DNASSV (SSV T6 promoter) (dsDNA)
DNA 1: CGGACCGAAAGCGCGACCATCGCCGGAGATTGGAGTAAAGTTTAAATACTG
DNA 2: CAGTATTTAAACTTTACTCCAATCTCCGGCGATGGTCGCGCTTTCGGTCCG
Kd (MjTBP): 48 ± 6 nM

B2: DNAH2B (H2B promoter) (dsDNA)
DNA 1: CTTCACCTTATTTGCATAAGCGATTCTATATAAAAGCGCCTCGCTCTACCCTGCTCACGCTGTTTTTCCTTTTCGTTGGC
DNA 2: GCCAACGAAAAGGAAAAACAGCGTGAGCAGGGTAGAGCGAGGCGCTTTTATATAGAATCGCTTATGCAAATAAGGTGAAG
Kd (ScTBP): 4.2 ± 1.2 nM
binding result (ScTBP;ScTF(II)B): binds
